We go through one substance from US20230183352A1.

The experiment addresses CD80-FC (UniProt P33681). In words: ELISA, CD80-FC coated 4 µg/ml, biotin-PDL1-FC titrated. In general terms: ELISA stands for enzyme-linked immunosorbent assay.

Biotin QP004.3 (biotin-PDL1-FC), sequence (Q9NZQ7 19-238 limits assumed): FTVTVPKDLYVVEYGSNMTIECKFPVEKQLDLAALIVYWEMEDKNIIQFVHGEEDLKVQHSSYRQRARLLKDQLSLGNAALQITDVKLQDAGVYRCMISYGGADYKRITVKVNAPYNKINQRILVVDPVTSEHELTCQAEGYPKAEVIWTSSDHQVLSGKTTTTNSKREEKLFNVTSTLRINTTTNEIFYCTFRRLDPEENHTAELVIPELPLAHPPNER
CD80-FC, sequence (P33681 35-242 limits assumed): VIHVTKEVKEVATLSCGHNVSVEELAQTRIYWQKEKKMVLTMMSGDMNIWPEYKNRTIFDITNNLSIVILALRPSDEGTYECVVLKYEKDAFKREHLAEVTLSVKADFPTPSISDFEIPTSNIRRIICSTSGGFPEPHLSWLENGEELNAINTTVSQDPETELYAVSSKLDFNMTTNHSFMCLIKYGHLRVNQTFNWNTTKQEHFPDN

Regarding “Biotin QP004.3 (biotin-PDL1-FC) (from UniProt Q9NZQ7 19-238) (Fc fusion)”, the ELISA reading at 0 µg/ml Biotin-QP004.3 (blank) amounted to 0.0484, the ELISA reading at 0.00064 µg/ml Biotin-QP004.3 came out at 0.048, the ELISA reading at 0.0032 µg/ml Biotin-QP004.3 turned out to be 0.0468 and the ELISA reading at 0.016 µg/ml Biotin-QP004.3 turned out to be 0.0668. The ELISA reading at 0.08 µg/ml Biotin-QP004.3 turned out to be 0.179, the ELISA reading at 0.4 µg/ml Biotin-QP004.3 was determined as 0.591, the ELISA reading at 2 µg/ml Biotin-QP004.3 was 1.87 and the ELISA reading at 10 µg/ml Biotin-QP004.3 worked out at 3.19.
